Assay results from the DeepSol protein solubility set.

Assay: soluble on expression in E. coli; label from the status in PepcDB or PDB records

Row | Sequence | soluble on expression in E. coli
1 | MPLYKLTYFDARGYAEPARILFHLAGVPFEDNRLTHGDGSWEKIKDKTPFGQVPVLSVDGFDIPQSAAIIRYLANKFGYAGKTPEEQAWADAIVDQFKDFMGAFRQLIMAQRSGKPAEEIAKISSEVAIPARDSYFKILNGLLEKSKSGFLVGDGLTFADIVVVENLTTLEKNQFFTASEHPKLSALREKVHAVPAIKTWVATRPDTQF | not soluble
2 | MVQQKIANLLQGDFRYQIQYNWVSLENISPNIQLAVISSEDQRFLEHLGFDFEAIQRAIRYNEKSNKGIRGASTISQQTAKNLMLWHGQNWLRKGLEVPATMLLELTWSKKRILEVYLNIAEFGNGIFGVEAASRYYFKKSAKNLSQNEAALLAAVLPNPIIYKVNKPSLLVRKKQTWILRQMGNLGTEYLSHL | not soluble
3 | MSLRMKVFEIVKSSTENEIVRIHVELPRLKYLKDSNFEEKFNSEVEEKIKKFVNEVKGIAQEDHDKDVQHTPYEAYVSVDVRYEGKDFLSFVVYYYQFTGGAHGITFFETYNIDLKNSKVLKLYDIIKEEAEDTIKSNILKQIEQNNTDFFPDAPMNILKDDIFSREFTISKDGLIIMYPHYDLAPYASGMPEFVIPWNVIEKFLKYDILSLLKEGHHHHHH | soluble
4 | MAGDPMYHSRPIFNIIDSSNIQDRRELKLVLRHTEIAYRSFAQEDLIPAQRSWMNSIINTDVPIDPAIDEVVKRFCEVACLPGPAGIPLNIILNDSLTYVYCSFQAMRKYAHKRFYDGVSDEGVVISTVPPYAEGITKETMRSWHNNVCQNTSNETHDLDAYIAFLPTSLQNPSFSHMKIGCDSFLAPSRVDPFCVEIIAVGKALFHDNGLKKNPRCGGQWLPPSCLEHHHHHH | not soluble
5 | MVIRVYIASSSGSTAIKKKQQDVLGFLEANKIGFEEKDIAANEENRKWMRENVPENSRPATGYPLPPQIFNESQYRGDYDAFFEARENNAVYAFLGLTAPPGSKEAEV | soluble
6 | MGRLFVVNLEGKIYSCKHCKTHLATYEDIISKSFHCKHGKAYLFNKVANVSIGETEERLMMTGKHTVADIFCVSCGSIVGWKYETAHEKNQKYKEGKSVLERFKISGPDGSNYWVSSHGRHIGGSDADDA | soluble
7 | MGSDKIHHHHHHMNNPISDDYRNLLVEVKQRIRSAQYEALKAVNKELIALYWDIGKMIVTQQQEADWGKSVVEQLAKDLQTEFPGISGFSTRNMWNMRSFYIAYSQNEKLQPLVAEIGWTHNIVILEKCKDDLEREFYLRMTRKFGWTKNVLIHQIENQTYEKTLLNQTNFNQTVPAEIRNQLKLAVKDEYTFDFLELADEHSERQLEQAILARVEPFLQEMGGRFTFVGSQYRLEIGDQEFFIDLLLYHRQLKCLVAVELKTGEFLPEYVGKMQFYLAALDDLSRLPDENLSIGIILCKSKNKTIVEYALRESNKPIGVATYKVFSSLPQDLRNQLPAPEQVAKLLEGVE | not soluble
8 | MKYLGLCTDLYELTMAQSYLYEGKTGTAVFSLFVRKLPEKRNFLISAGLETLVERIKNFKFGDEEIKYLKSLGIFKDDFLDYLKDFEFSGNVYAIPEGRIVFQNEPLVQVEAPIPEAQLLETLVINTIQFETMIASKAVRSYLVAKGKKLVDFGFRRAHGLEAGILAARASYIAGFDGTSNVEAGREFGIPVVGTMAHSYVMIFDKEEDAFRAFAKLYPKNAIFLIDTYDTIEAAKKVVDLAKEGVPVVGVRIDSGDIVKLSKEVRKILDENGLKNVRIIVSGGVDEYKIKEWFDRGAPIDAFGVGTKFITSADAPYFDIAYKLVEYEGKPKYKLSPGKKTFPYKRQVYRYYENGKMKYDETAKWESKREGEPLVELVMKNGKLIKELPSLKEIREVVMSELEKLPENYKDITKHYEYEVKILDWE | soluble
9 | MSRITQVHRILEQKHLDAIIILSDYNRRYLSGFTGTSGALIISKDKQYLITDFRYIDQATKQAPNYEIINRKSTIIGEIKELLHQENFENVGFEGHHVSYDTYLELNKSRISLISISNTVDKIRDVKDADEIALIQKAANIVDETYEYILTVVKAGMTEKELKAILESKMLELGADGPSFDTIVASGHRGALPHGVASDKIIEKGDMITLDFGAYYNGYCSDITRTFAIGEPDPKLKEIYQIVLESQMKAINEIRPGMTGAEADAISRNYLESKGYGKEFGHSLGHGIGLEIHEGPMLARTIQDKLQVNNCVTVEPGVYIEGLGGIRIEDDILITENGCQVFTKCTKDLIVLT | not soluble
10 | MAEHPIQGLMETAMESIKEMVDVNTIVGDAVQAPDGTVIIPISKVTFGFAAGGGEFASCCSVDEKGEDSSDDSSKPEIKFPFAGGSGAGVSINPVAFMVVGQGQIKLLPVNINSSLEKILDLIPEIIEKTKDSVKKNLKVKKEIKPGNGESCAKSSKEDENE | not soluble
11 | TDINSLRTRLRSGEHAFADTLAFIADGYDYQPQPFRNGDVDNAAGQNEGSCKTLGLALLEGLSDEEALLAFGEHYRSVQATPEGSDHGNIRALIKHGLAGVTFEGEPLKRK | not soluble
12 | MGHHHHHHSHMKDLTDMDKNSPEAWCAAGNCFSLQREHDIAIKFFQRAIQVDPNYAYAYTLLGHEFVLTEELDKALACFRNAIRVNPRHYNAWYGLGMIYYKQEKFSLAEMHFQKALDINPQSSVLLCH | not soluble
13 | MTKTLETQPEEKTVFLCKETNPDFLGREIYADNVETPYNFYLIRKLYLAKEYQNLAEGEQFFEALCESWDESEQFEELIVKKIYVYVETELMYYTVYFGSFEPTTRDLRSALKQWMYEIPTTKNKKTVRMNETNVQVVPQENQLTELAGEIAVLREMLTLLKENLASLNEAVNQTRNPVISRQIKTIHLKRASPVIAAEQASLKVSEDTNLEQPDVNLSPDNRENQEGETTVATSEPAPIKEALPEKKQENQQSTAAKPLFTFPQETEKSSLNSVNKSAEKEEEQKPEKEAVSMESEKENSSSRTIPADFQRQLDELEEEIYRRFMSRHLEDTDGNQAVPKITIEKRQLEAQMFEAKAFSQSFKQVQKKKAGDVRICNQLSCMKLEKGLDKFLDEVTEYVEKRTLFNKKVRCPLPVIRELEGYGQLNQYMQKILDCY | not soluble
14 | AHHHHHHGSGGLALEGRSIVFASGKGGTGKTTTVANIGVALAQFGKEVILIDADITMANLSLILGMEDIPITLHDVLAGEAELKDAIYEGPAGVKVIPGGLSLEKVKKARPERLRELIKEISQMGDFILIDAPAGLELTSVTALLIGKELIIVTNPEISAITDSLKTKLVAEKLGTLPLGAILNRVTSEKTELSKEEIEAILEVPVIGIVPEDPEVKRASAYGVPLVIKNPTSPAAIAYKQIAAKLAGIKWTPPEPESPVKRIFKALFGGKR | soluble
15 | MRNQFDLELHELEQSFLGLGQLVLETASKALLALASKDKEMAELIINKDHAINQGQSAIELTCARLLALQQPQVSDLRFVISIMSSCSDLERMGDHMAGIAKAVLQLKENQLAPDEEQLHQMGKLSLSMLADLLVAFPLHQASKAISIAQKDEQIDQYYYALSKEIIGLMKDQETSIPNGTQYLYIIGHLERFADYIANICERLVYLETGELVDLN | soluble
16 | MEKMIITAAICGAEVLKEHNPAVPYTVEECVREAKSAYDAGASIIHLHVRYDDGTPTQDRNRFKEVMEAIKAVCPDVIIQPSTGGAVGMTNDERLQPTELFPEMATLDCGTLNFGGDEVFTNTENTIKYFGEKMIERGIKPELEVFDKSMIDMALRLHRKGYIQSPMHFDFVMGVNGGISGEMRDFVFLRESIPADATYTVAGVGRYEFPLAALAIIDGGHVRVGFEDNVYISKGVLARSNGELVEKVVRMAKEMGREIATPAEARRILGLSK | soluble
17 | MGSDKIHHHHHHMRLFSKLFNIRDNTVVERPRSLTGEGIAAKTQTRVAEKISSTPNDTDTVAAPTVDVAALFYSLLFATSHKDTGGIANNLEKRLIGNVESALADPKVIAEKVFKLPHDLIELDKQLANPEVDTEEVIALIKRDPVLSAEVIQLCNAPAFHRGAKDITSLQQAVVILGREQLRRFVSAVKVREVVEIKPIYYRRFGAEVWRHSLQVAYLAAELATEDQDTAFMLGLIHDVGKIAIFQMLLEAFAKAEPGEQPRSWLFRQVMTSKSLILSAVLARSWLLPPLFSRSLAALANPDNMPTEPLPKAIWTANHISECSMLWQAARLKEPQLNELLARIGMDRKTFDPLHEKLILFTR | not soluble
18 | MSATETKYVPRLYKKYKEEVVPILQKKFNYKSPMQIPRLQKIVVNMGVGEAVQDIRQLERAVEDLRAITGQQPVITRARKSEAGFKLRKGMPIGCKVTLRKERMWDFLDKLISVALPRVKDFKGLSPRSFDGRGNYAFGIAEQIVFPEIDYDKVDRIRGMDIIINTTAETDEEAFWLLSLLGLPIRSM | soluble
19 | MSLKDICLKVFGDYACFTRPEMKVERVSYDIITPSAARAIFEAILWKPAIRWRVTKIEVLKPIRWISVRRNEVGAVASVRTAQTAMQAGRGDLGLYIEEERQQRAGLFLREVAYRLHARCEPTDRKGEQESPDKFLAMFHRRATNGQCFNQPYLGCREFAAHFEPVTNLDAAMADEPPITETRDLGWMLHDIDFANGIQPKFFRAHMQQGVIRVPEWNSEGVKGEGHHHHHH | soluble
20 | MSLRITRIRLYKTDLPYVDGSYGWGAGNAITVARASVVVIDTDAGLQGCGEFTPCGENYMIAHSEGVDAFARLAAPQLLGQDPRQVARMERLMDHLVQGHGYAKAPFDAAFWDILGQATGQPVWMLLGGKLCDGAPMYRVAPQRSEAETRAELARHRAAGYRQFQIKVGADWQSDIDRIRACLPLLEPGEKAMADANQGWRVDNAIRLARATRDLDYILEQPCRSYEECQQVRRVADQPMKLDECVTGLHMAQRIVADRGAEICCLKISNLGGLSKARRTRDFLIDNRMPVVAEDSWGGEIASAAVAHFAASTPEEFLINSTDLMNYNTRSTGLGGPTVHQGRLYASDTPGLGVTPDFNSLGAPVADWALPEGHHHHHH | soluble
21 | MSLNRIILIGNGFDLAHGLPTRYEDFINWYWEKRVDSFIGNLTPISEDCLCSIKITSDNYNRCWNVFAFCLPKFFNKPSGKEIIDSIANDSKSFELSLSPFFFNICTCIETKGWVDIEKEYYDLLRNAIINPDNCNYTISEINKQLHYIQGLLAQYLSSITTDNIKCNKEIQRQIYGNIRKDDVSISQLQVYYDYVDHLIQQDNVYQQLLCRYGYESSDRHFMAEDIKQLRKQFVGSSEIEEIYLKDLIFPENIVLLNFNYTEVADKYGCLKVASTNHIHGDLNNPDSIIFGYGDELDEDYRDFLKQSDNECLRNIKSIKYLESGKYRNLLQFIESAPYQVYIMGHSCGNSDRTLLNTLFEHKNCVSIKPYYYQKDDGSDNYLEIAQNICRNFTDMKLMRDRVVNKMFCEPLPQYIKEGHHHHHH | soluble
22 | MVQQSEVRQMKHSVSTLNQEMTQLNQETVKITQQNRLNAKSSSGVYLLPGAKTPARLESQIGTLRMSLVNITPDADGTTLTLRIQGESNDPLPAFSGTVEYGQIQGTIDNFQEINVQNQLINAPASVLAPSDVDIPLQLKGISVDQLGFVRIHDIQPVMQLEHHHHHH | soluble
23 | MTDQRRNVYFFHKQDQETNEQARSLTQLAEEHGFTVVNQHSDANIIASIGGDGTFLQAVRKTNFRDDCLYVGITKKGKAHLYCDFHSDEREKMVDAMTFEQIEVRKYPLIEVTVDQASPFHCLNEVSIRSSIIKTFVMDVLIDDLHFETFRGDGMIISTPTGSTAYNKSVAGAVVDPLLPCMQVSELASLNNNTYRTLGSPFVLSSDRKLTLRVVQDGNEHPIIGLDNEALSTRNVKTIEIKLSNKKIKTVKLKDNSFWEKVKRTFLLEHHHHHH | not soluble
24 | MGSDKIHHHHHHMTKITVLSGKGGTGKTTVSVNMAKALSESYRVQLLDADVEEPNDHIFFNVDVSFEEPVHLMIPVVDNSVCIRCGECASTCQFGAISVFPSGTFVFESLCHGCGACSIMCPVNAISERPKEIGKIRFGTADGNISFGMGILNIGERTGVPVIRKLKKHIDEKADVVIVDAPPGTSCPVVESLRNTDFALLVTEPTAFGLHDLKLAVELTKEMGIPSGIVVNRYIPGNTIIEEFADEEGIPVLLKIPFKREIASLCAEGKLIVEAFQDMKKDFLELFEKIEVMVR | not soluble
